Molecular target: T1, HCMV gH/gL complex expressed in U373 astrocytoma cells (Human cytomegalovirus (HHV-5), strain …, UniProt P12824;P16832)
T1 construct: Human cytomegalovirus envelope glycoprotein H (gH); Human cytomegalovirus envelope glycoprotein L (gL); The immunisation plasmid and the peptide array used TB40/E gH, but no strain is named for the U373 cells; also called gH/gL-dimer; U373-gH/gL
Assay: flow cytometry on cells; Competition of the anti-gH mAbs with MSL-109. The set-up for MSL-109 is not told. The competition assay in the methods uses fixed, permeabilised U373-gH/gL cells, AF647-labelled antibody plus unlabelled antibody, 4 °C, 1 h.
Settings: one partner purified

B1: MSL-109 (antibody, V domains shown)
VH: EEQVLESGGGLVKPGGSLRLSCAASGFTFSPYSVFWVRQAPGKGLEWVSSINSDSTYKYYADSVKGRFTISRDNAENSIFLQMNSLRAEDTAVYYCARDRSYYAFSSGSLSDYYYGLDVWGQGTLVTVSS
VL: DIVMTQSPLSLSVTPGEPASISCRSSQSLLHTNGYNYLDWYVQKPGQSPQLLIYLASNRASGVPDRFSGSGSGTDFTLKISRVETEDVGVYYCMQALQIPRTFGQGTKVEIK
notes: Human IgG1 constant region from the pFuse vector (InvivoGen); Human kappa constant region from the pFuse vector (InvivoGen); Human IgG1 kappa; source: HEK-293, heavy and light chain co-transfected, purified from the cell supernatant
binding result: binds

— PMC9038728, “Development of broadly neutralizing antibodies targeting the cytomegalovirus subdominant antigen gH” (Communications Biology, 2022)
